B1: RTN2 (parent)
chain: SERPLEDLRLRLDHLGWVARGTGS
B2: FAM50A (parent)
chain: KKREKQREQMEQMKQRIAEENIMK

Variants of: B1
Assay: protein stability index of a GFP-peptide fusion (GPS, HEK-293T) (PSI 1-6); higher = more stable
Conditions: c terminus: a fixed tail appended
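Also: lentivirally expressed fusions sorted by FACS into six bins by GFP to DsRed ratio, PSI derived from sequencing read proportions per bin multiplied by bin number.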

| Variant | protein stability index |
| --- | --- |
| SERPLEDLRLRYDHLGWVARGTGS | 3.11 |
| SERPLEDLRLRKDHLGWVARGTGS | 3.13 |
| SERPLEDLRLRLDHLAWVARGTGS | 2.58 |
| SERPLEDLRLRLDHLEWVARGTGS | 3.03 |
| SERPLEDLRLRLDHLGWYARGTGS | 2.67 |
| SERPLEDLRLRLDHLGWDARGTGS | 4.31 |
| SERPLPDLRLRLDHLGWVARGTGS | 2.15 |
| SERPLWDLRLRLDHLGWVARGTGS | 1.62 |
| SERPLSDLRLRLDHLGWVARGTGS | 1.93 |
| SERPLEDLRLTLDHLGWVARGTGS | 2.28 |
| SEMPLEDLRLRLDHLGWVARGTGS | 2.99 |
| SELPLEDLRLRLDHLGWVARGTGS | 2.49 |
| SEHPLEDLRLRLDHLGWVARGTGS | 2.76 |
| SECPLEDLRLRLDHLGWVARGTGS | 2.4 |
| SEYPLEDLRLRLDHLGWVARGTGS | 1.86 |
| SERPLEDLRLRLDHLGWVARGTGR | 2.36 |
| SERPLEDLRLRLDHLGWVARGTGQ | 2.61 |
| SERPLEDLHLRLDHLGWVARGTGS | 2.56 |
| SERPLEDLFLRLDHLGWVARGTGS | 1.63 |
| SERPLEDLWLRLDHLGWVARGTGS | 1.64 |
| SERPLEDLCLRLDHLGWVARGTGS | 3.37 |
| SERPLEDLSLRLDHLGWVARGTGS | 1.2 |

| Variant | protein stability index |
| --- | --- |
| SERPLEDLRLRLDHLGWVAQGTGS | 3.32 |
| SERPLEDLRLRLDHLGWVAKGTGS | 3.19 |
| SERPLEDLRLRLDHLGWVAPGTGS | 3.31 |
| SERPLEDYRLRLDHLGWVARGTGS | 2.35 |
| SERPLEDERLRLDHLGWVARGTGS | 3.52 |
| SERPLEDKRLRLDHLGWVARGTGS | 2.83 |
| SERKLEDLRLRLDHLGWVARGTGS | 2.38 |
| SERLLEDLRLRLDHLGWVARGTGS | 1.94 |
| SERVLEDLRLRLDHLGWVARGTGS | 1.26 |
| SERPLEDLRFRLDHLGWVARGTGS | 3.78 |
| SERPLEDLRTRLDHLGWVARGTGS | 1.93 |
| SERPLEDLRARLDHLGWVARGTGS | 2.46 |
| SERPLEDLRLRLDHEGWVARGTGS | 2.25 |
| SERPLEDLRLRLDHLGWVARGTKS | 3.55 |
| SERPLEDLRLRLDHLGWVARGTLS | 2.44 |
| SERPLEDLRLRLDHLGWVARGTCS | 2.4 |
| SERPLEDLRLRLDHLGWVARVTGS | 2.09 |
| SERPLEDLRLRLDHLGWVARMTGS | 1.96 |
| SERPLEDLRLRLDHLGWVARETGS | 2.05 |
| SERPLEDLRLRLDHLGWVARQTGS | 2.78 |
| SERPLEDLRLRLDHLGWVARSTGS | 2.68 |
| SERPLEDLRLRLDHLGWVARYTGS | 2.42 |

| Variant | protein stability index |
| --- | --- |
| SERPLEDLRLRLDWLGWVARGTGS | 1.92 |
| SERPLEDLRLRLDPLGWVARGTGS | 2.54 |
| SERPLEDLRLRLDMLGWVARGTGS | 2.47 |
| SERPLEQLRLRLDHLGWVARGTGS | 1.43 |
| SERPLETLRLRLDHLGWVARGTGS | 1.88 |
| SERPYEDLRLRLDHLGWVARGTGS | 2.53 |
| SERPWEDLRLRLDHLGWVARGTGS | 1.97 |
| SERPNEDLRLRLDHLGWVARGTGS | 1.48 |
| SERPSEDLRLRLDHLGWVARGTGS | 2 |
| SERPVEDLRLRLDHLGWVARGTGS | 4.48 |
| SERPLEDLRLRLDHLGWVARGMGS | 2 |
| SERPLEDLRLRLDHLGWVARGHGS | 2.49 |
| LERPLEDLRLRLDHLGWVARGTGS | 1.76 |
| KERPLEDLRLRLDHLGWVARGTGS | 2.61 |
| EERPLEDLRLRLDHLGWVARGTGS | 2.74 |
| SERPLEDLRLRLDHLGWVHRGTGS | 2.9 |
| SERPLEDLRLRLDHLGWVLRGTGS | 1.97 |
| SERPLEDLRLRLDHLGWVNRGTGS | 3.34 |
| SERPLEDLRLRLDHLGHVARGTGS | 3.9 |
| SERPLEDLRLRLFHLGWVARGTGS | 1.07 |
| SERPLEDLRLRLTHLGWVARGTGS | 2.34 |

Variants of: B2
Assay: as above
Conditions: c terminus: a fixed tail appended

| Variant | protein stability index |
| --- | --- |
| KKREKAREQMEQMKQRIAEENIMK | 4.48 |
| KKREKWREQMEQMKQRIAEENIMK | 3.96 |
| KKREKHREQMEQMKQRIAEENIMK | 4.7 |
| KKREKMREQMEQMKQRIAEENIMK | 4.62 |
| KKREKDREQMEQMKQRIAEENIMK | 5.06 |
| KKREKCREQMEQMKQRIAEENIMK | 4.17 |
| KKREKTREQMEQMKQRIAEENIMK | 4.9 |
| KKREKVREQMEQMKQRIAEENIMK | 4.49 |
| KKREKKREQMEQMKQRIAEENIMK | 4.67 |
| KKREKPREQMEQMKQRIAEENIMK | 4.57 |
| KKREKSREQMEQMKQRIAEENIMK | 4.96 |
| KKREKGREQMEQMKQRIAEENIMK | 4.62 |
| KKREKYREQMEQMKQRIAEENIMK | 4.14 |
| KKREKLREQMEQMKQRIAEENIMK | 4.13 |
| KKREKIREQMEQMKQRIAEENIMK | 4.67 |
| KKREKEREQMEQMKQRIAEENIMK | 4.81 |
| KKREKNREQMEQMKQRIAEENIMK | 5.3 |
| KKREKFREQMEQMKQRIAEENIMK | 4.13 |
| KKLEKQREQMEQMKQRIAEENIMK | 4.93 |
| KKFEKQREQMEQMKQRIAEENIMK | 4.61 |
| KKWEKQREQMEQMKQRIAEENIMK | 4.25 |
| KKVEKQREQMEQMKQRIAEENIMK | 5.21 |
| KKYEKQREQMEQMKQRIAEENIMK | 4.04 |
| KKKEKQREQMEQMKQRIAEENIMK | 5.06 |
| KKTEKQREQMEQMKQRIAEENIMK | 5.2 |

| Variant | protein stability index |
| --- | --- |
| KKDEKQREQMEQMKQRIAEENIMK | 5.11 |
| KKCEKQREQMEQMKQRIAEENIMK | 4.91 |
| KKAEKQREQMEQMKQRIAEENIMK | 5.17 |
| KKHEKQREQMEQMKQRIAEENIMK | 4.65 |
| KKQEKQREQMEQMKQRIAEENIMK | 5.48 |
| KKIEKQREQMEQMKQRIAEENIMK | 5.16 |
| KKPEKQREQMEQMKQRIAEENIMK | 5.26 |
| KKSEKQREQMEQMKQRIAEENIMK | 4.78 |
| KKGEKQREQMEQMKQRIAEENIMK | 5.18 |
| KKNEKQREQMEQMKQRIAEENIMK | 5.08 |
| KKMEKQREQMEQMKQRIAEENIMK | 5.04 |
| KKEEKQREQMEQMKQRIAEENIMK | 5.29 |
| GKREKQREQMEQMKQRIAEENIMK | 4.9 |
| TKREKQREQMEQMKQRIAEENIMK | 5.07 |
| FKREKQREQMEQMKQRIAEENIMK | 4.22 |
| MKREKQREQMEQMKQRIAEENIMK | 4.67 |
| AKREKQREQMEQMKQRIAEENIMK | 4.71 |
| IKREKQREQMEQMKQRIAEENIMK | 4.98 |
| YKREKQREQMEQMKQRIAEENIMK | 4.95 |
| LKREKQREQMEQMKQRIAEENIMK | 4.62 |
| DKREKQREQMEQMKQRIAEENIMK | 4.87 |
| NKREKQREQMEQMKQRIAEENIMK | 5.42 |
| EKREKQREQMEQMKQRIAEENIMK | 5.1 |
| CKREKQREQMEQMKQRIAEENIMK | 4.67 |
| PKREKQREQMEQMKQRIAEENIMK | 5.52 |

| Variant | protein stability index |
| --- | --- |
| WKREKQREQMEQMKQRIAEENIMK | 4.46 |
| RKREKQREQMEQMKQRIAEENIMK | 4.48 |
| QKREKQREQMEQMKQRIAEENIMK | 5.15 |
| HKREKQREQMEQMKQRIAEENIMK | 4.95 |
| VKREKQREQMEQMKQRIAEENIMK | 4.71 |
| SKREKQREQMEQMKQRIAEENIMK | 5.14 |
| KKREHQREQMEQMKQRIAEENIMK | 5.12 |
| KKREWQREQMEQMKQRIAEENIMK | 4.46 |
| KKREAQREQMEQMKQRIAEENIMK | 4.38 |
| KKREDQREQMEQMKQRIAEENIMK | 4.75 |
| KKRETQREQMEQMKQRIAEENIMK | 5.16 |
| KKREYQREQMEQMKQRIAEENIMK | 4.11 |
| KKREFQREQMEQMKQRIAEENIMK | 4.8 |
| KKRERQREQMEQMKQRIAEENIMK | 4.62 |
| KKRENQREQMEQMKQRIAEENIMK | 5.25 |
| KKREPQREQMEQMKQRIAEENIMK | 5.34 |
| KKREVQREQMEQMKQRIAEENIMK | 4.96 |
| KKREQQREQMEQMKQRIAEENIMK | 4.39 |
| KKREMQREQMEQMKQRIAEENIMK | 4.95 |
| KKREIQREQMEQMKQRIAEENIMK | 4.76 |
| KKRESQREQMEQMKQRIAEENIMK | 4.92 |
| KKRELQREQMEQMKQRIAEENIMK | 4.68 |
| KKREEQREQMEQMKQRIAEENIMK | 5.26 |
| KKRECQREQMEQMKQRIAEENIMK | 5.05 |
| KKREGQREQMEQMKQRIAEENIMK | 4.55 |

| Variant | protein stability index |
| --- | --- |
| KVREKQREQMEQMKQRIAEENIMK | 4.52 |
| KMREKQREQMEQMKQRIAEENIMK | 4.64 |
| KAREKQREQMEQMKQRIAEENIMK | 4.57 |
| KDREKQREQMEQMKQRIAEENIMK | 4.34 |
| KPREKQREQMEQMKQRIAEENIMK | 5.22 |
| KEREKQREQMEQMKQRIAEENIMK | 5.04 |
| KWREKQREQMEQMKQRIAEENIMK | 4.58 |
| KIREKQREQMEQMKQRIAEENIMK | 4.63 |
| KTREKQREQMEQMKQRIAEENIMK | 5.07 |
| KFREKQREQMEQMKQRIAEENIMK | 4.45 |
| KQREKQREQMEQMKQRIAEENIMK | 4.75 |
| KGREKQREQMEQMKQRIAEENIMK | 4.55 |
| KLREKQREQMEQMKQRIAEENIMK | 3.67 |
| KYREKQREQMEQMKQRIAEENIMK | 4.22 |
| KCREKQREQMEQMKQRIAEENIMK | 4.76 |
| KSREKQREQMEQMKQRIAEENIMK | 5.01 |
| KNREKQREQMEQMKQRIAEENIMK | 4.94 |
| KRREKQREQMEQMKQRIAEENIMK | 5.03 |
| KHREKQREQMEQMKQRIAEENIMK | 4.98 |
| KKREKQKEQMEQMKQRIAEENIMK | 4.81 |
| KKREKQFEQMEQMKQRIAEENIMK | 4.52 |
| KKREKQCEQMEQMKQRIAEENIMK | 4.71 |
| KKREKQLEQMEQMKQRIAEENIMK | 4.95 |
| KKREKQEEQMEQMKQRIAEENIMK | 5.81 |
| KKREKQAEQMEQMKQRIAEENIMK | 4.91 |

| Variant | protein stability index |
| --- | --- |
| KKREKQHEQMEQMKQRIAEENIMK | 5.08 |
| KKREKQGEQMEQMKQRIAEENIMK | 5.21 |
| KKREKQDEQMEQMKQRIAEENIMK | 5.39 |
| KKREKQIEQMEQMKQRIAEENIMK | 4.96 |
| KKRYKQREQMEQMKQRIAEENIMK | 4.27 |
| KKRFKQREQMEQMKQRIAEENIMK | 4.39 |
| KKRTKQREQMEQMKQRIAEENIMK | 4.09 |
| KKRLKQREQMEQMKQRIAEENIMK | 4.21 |
| KKRDKQREQMEQMKQRIAEENIMK | 5.21 |
| KKRCKQREQMEQMKQRIAEENIMK | 4.42 |
| KKRPKQREQMEQMKQRIAEENIMK | 4.42 |
| KKRAKQREQMEQMKQRIAEENIMK | 5.04 |
| KKRKKQREQMEQMKQRIAEENIMK | 4.28 |
| KKRNKQREQMEQMKQRIAEENIMK | 4.37 |
| KKRGKQREQMEQMKQRIAEENIMK | 4.71 |
| KKRVKQREQMEQMKQRIAEENIMK | 4.49 |
| KKRIKQREQMEQMKQRIAEENIMK | 4.53 |
| KKRMKQREQMEQMKQRIAEENIMK | 4.5 |
| KKRHKQREQMEQMKQRIAEENIMK | 4.38 |
| KKRSKQREQMEQMKQRIAEENIMK | 4.47 |
| KKRQKQREQMEQMKQRIAEENIMK | 4.79 |
| KKRRKQREQMEQMKQRIAEENIMK | 4.32 |
| KKRWKQREQMEQMKQRIAEENIMK | 3.96 |
